Results: patent EP4620474A1

Target: human receptor for C5a (human) (UniProt P21730)
Experiment: cell-based or functional assay

UniProt P21730, sequence (P21730 whole entry): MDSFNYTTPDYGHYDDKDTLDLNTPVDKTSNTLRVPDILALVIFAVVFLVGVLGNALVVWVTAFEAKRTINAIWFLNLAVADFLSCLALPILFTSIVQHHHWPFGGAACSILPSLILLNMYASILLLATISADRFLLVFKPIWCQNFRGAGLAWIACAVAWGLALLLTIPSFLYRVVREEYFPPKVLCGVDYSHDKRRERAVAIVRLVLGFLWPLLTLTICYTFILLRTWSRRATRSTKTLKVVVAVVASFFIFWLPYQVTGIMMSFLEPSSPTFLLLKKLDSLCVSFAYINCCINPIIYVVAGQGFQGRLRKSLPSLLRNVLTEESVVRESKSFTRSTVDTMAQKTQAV

Substance | half effective concentrations (EC50), chemotaxis (migration) of BA/F3/huC5aR cells [nM]
mouse C5a (from UniProt P06684 679-755) (ligand) | 0.3
recombinant human C5a (from UniProt P01031 678-751) (ligand) | 0.1
